What was measured:
[1] = molecular target: T1, Methanothermobacter thermautotrophicus non-discriminating glutamyl-tRNA synthetase (Methanothermobacter thermautotrophicus), O26157; assay: nitrocellulose filter-binding competition; details: remark: other sources report otherwise
T1 chain: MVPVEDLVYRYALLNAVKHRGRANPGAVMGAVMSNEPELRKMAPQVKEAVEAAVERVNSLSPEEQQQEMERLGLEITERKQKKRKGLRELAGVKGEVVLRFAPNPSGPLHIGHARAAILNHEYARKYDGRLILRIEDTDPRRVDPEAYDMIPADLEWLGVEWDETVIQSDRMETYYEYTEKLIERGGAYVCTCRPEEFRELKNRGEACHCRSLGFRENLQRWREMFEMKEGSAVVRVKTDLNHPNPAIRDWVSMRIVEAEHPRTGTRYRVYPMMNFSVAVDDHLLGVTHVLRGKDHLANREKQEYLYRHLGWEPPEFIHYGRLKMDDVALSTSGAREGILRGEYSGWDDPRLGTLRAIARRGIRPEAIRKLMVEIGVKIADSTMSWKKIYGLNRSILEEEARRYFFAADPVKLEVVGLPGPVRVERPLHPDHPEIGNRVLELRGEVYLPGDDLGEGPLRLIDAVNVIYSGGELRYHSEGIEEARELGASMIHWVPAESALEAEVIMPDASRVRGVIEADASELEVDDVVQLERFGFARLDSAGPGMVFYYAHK

[2] = molecular target: T2, Alexa fluor 488-labeled M. thermautotrophicus ND-GluRS (Methanothermobacter thermautotrophicus), O26157; assay: fluorescence polarisation; details: remark: other sources report otherwise
T2 chain: T1 chain

SEC = molecular target: the molecule itself; assay: SEC
[3] = molecular target: T3, Methanothermobacter thermautotrophicus glutamyl-tRNA(Gln) amidotransferase GatDE, His6-tagged (Methanothermobacter thermautotrophicus), O26802; assay: SEC; details: remark: other sources report otherwise
T3 chain 1: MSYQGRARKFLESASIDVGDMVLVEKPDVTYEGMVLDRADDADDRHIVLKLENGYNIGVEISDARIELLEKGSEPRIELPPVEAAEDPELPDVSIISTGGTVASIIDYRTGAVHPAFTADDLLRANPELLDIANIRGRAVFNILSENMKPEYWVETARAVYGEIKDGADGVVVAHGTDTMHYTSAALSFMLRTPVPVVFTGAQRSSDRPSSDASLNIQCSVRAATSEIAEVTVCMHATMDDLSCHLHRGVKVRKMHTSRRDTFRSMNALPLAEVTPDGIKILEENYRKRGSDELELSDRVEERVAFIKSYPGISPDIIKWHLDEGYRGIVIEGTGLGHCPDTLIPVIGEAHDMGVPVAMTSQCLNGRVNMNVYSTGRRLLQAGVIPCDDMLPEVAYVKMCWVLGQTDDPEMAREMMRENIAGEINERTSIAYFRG
T3 chain 2: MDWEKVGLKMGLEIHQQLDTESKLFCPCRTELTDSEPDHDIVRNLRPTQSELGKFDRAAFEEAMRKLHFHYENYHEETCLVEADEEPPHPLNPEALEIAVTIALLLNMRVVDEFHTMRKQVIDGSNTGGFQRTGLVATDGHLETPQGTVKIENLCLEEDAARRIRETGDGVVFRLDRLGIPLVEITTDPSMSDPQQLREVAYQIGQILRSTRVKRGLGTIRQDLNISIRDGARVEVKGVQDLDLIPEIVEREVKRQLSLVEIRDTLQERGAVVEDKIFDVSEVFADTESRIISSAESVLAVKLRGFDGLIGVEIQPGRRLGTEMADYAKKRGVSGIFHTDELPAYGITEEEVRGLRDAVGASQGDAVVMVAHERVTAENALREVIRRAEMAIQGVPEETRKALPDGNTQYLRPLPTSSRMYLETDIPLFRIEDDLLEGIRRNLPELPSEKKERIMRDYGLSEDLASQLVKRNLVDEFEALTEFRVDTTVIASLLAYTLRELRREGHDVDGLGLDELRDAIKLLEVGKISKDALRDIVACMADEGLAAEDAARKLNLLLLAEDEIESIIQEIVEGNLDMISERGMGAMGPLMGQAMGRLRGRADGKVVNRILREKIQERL

B1: Methanothermobacter thermautotrophicus glutamyl-tRNA(Gln) amidotransferase GatDE, His6-tagged, O26802 1-435; O26803 1-619 (complex)
chain 1: T3 chain 1
chain 2: T3 chain 2
For B1, the Ki [1] was 33 nM and the Kd [2] was 100 nM.

B2: Methanothermobacter thermautotrophicus glutamyl-tRNA(Gln) amidotransferase GatDE, His6-tagged (complex)
chain 1: T3 chain 1
chain 2: T3 chain 2
With B2 the “stoichiometry N” value (SEC) was 2.

B3: Methanothermobacter thermautotrophicus non-discriminating glutamyl-tRNA synthetase, O26157 1-553 (enzyme)
chain: T1 chain
For B3, the stoichiometry N (ND-GluRS monomers per GatDE homodimer) [3] was 2.

Reference: PMC2943598 (Nucleic Acids Research, 2010)
